± gives the standard deviation.

The nature of this series: collision cross section of modified peptide (TIMS, N2, iRT-aligned); higher = larger / more extended gas-phase ion. Summed up:
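On a timsTOF Pro/HT (dda-PASEF, nitrogen, ~2.4 mbar), synthetic peptide pools were analysed after a 120-min nanoflow C18 separation at 60 °C and identified in MaxQuant. Three reference ions served for 1/K0 calibration, with run-wise alignment to the median iRT peptide deviation. Collision cross section comes from the Mason-Schamp equation, using the most abundant feature per charge state averaged over 1–3 technical replicates.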

Setting [1] is: charge state: 3, modification: Dimethyl (K).
Where [2] appears, read: charge state: 2, modification: hydroxyisobutyryl.
[3] abbreviates: charge state: 3, modification: hydroxyisobutyryl.
The mark [4] stands for this setting: charge state: 2, modification: Acetyl (K).
Where [5] appears, read: charge state: 2, modification: Phospho (Y).
[6] abbreviates: charge state: 2, modification: Propionyl.
Where [7] appears, read: charge state: 3, modification: Propionyl.
Where [8] appears, read: charge state: 2, modification: Malonyl.
The mark [9] stands for this setting: charge state: 2, modification: Succinyl.
Setting [10] is: charge state: 3, modification: Succinyl.
[11] abbreviates: charge state: 2, modification: Butyryl.
Where [12] appears, read: charge state: 2, modification: Hydroxyproline.
Where [13] appears, read: charge state: 2, modification: Crotonyl.
Where [14] appears, read: charge state: 3, modification: Butyryl.
Setting [15] is: charge state: 2, modification: GlyGly (K).
[16] abbreviates: charge state: 3, modification: GlyGly (K).
Where [17] appears, read: charge state: 2, modification: Nitro (Y).
Where [18] appears, read: charge state: 2, modification: Biotin.
Setting [19] is: charge state: 3, modification: Citrullination (R).

Under “charge state: 3, modification: HexNAc (ST)”, “SLYASSPGGVYATR [_S(HexNAc (ST))LYASSPGGVYATR_]” gave a collision cross section of 478.28 ± 0.91 Å². As to “IVFSGNLFQHQEDSKK [_IVFSGNLFQHQEDSK(Dimethyl (K))K_]”, the collision cross section under setting [1] is 532.16 ± 0.77 Å². For “SLEEEGAAHSGKR [_SLEEEGAAHSGK(hydroxyisobutyryl)R_]”, the collision cross section reads like this: under setting [2], 421.1 ± 1.9 Å²; under setting [3], 479.68 ± 2.1 Å².

“LVLPSQAQARLPSGEVVK [_LVLPSQAQAR(Methyl (R))LPSGEVVK_]” came in with a collision cross section (charge state: 3, modification: Methyl (R)) of 522.24 ± 0.66 Å².

Under setting [4], “LTEKELAEAASK [_LTEK(Acetyl (K))ELAEAASK_]” came in with a collision cross section of 387.12 ± 0.45 Å².

“LDLSSLAYSGK [_LDLSSLAY(Phospho (Y))SGK_]” gave a collision cross section under setting [5] of 374.73 ± 0.68 Å².

Take “GEVGAGAGPGAQAGPSAKR [_GEVGAGAGPGAQAGPSAK(Propionyl)R_]”: the collision cross section came out at 422.82 ± 0.97 Å² under setting [6] and 482.16 ± 0.88 Å² under setting [7]. Substance “ANEKTESSSAQQVAVSR [_ANEK(Malonyl)TESSSAQQVAVSR_]” had a collision cross section under setting [8] of 438.58 ± 1 Å² and a collision cross section (charge state: 3, modification: Malonyl) of 534.15 ± 1.9 Å². In turn, LEQVEKELLR [_LEQVEK(Succinyl)ELLR_] had a collision cross section under setting [9] of 384.25 ± 0.76 Å². For the substance “VNIGQGSHPQKVK [_VNIGQGSHPQK(Succinyl)VK_]”, the collision cross section runs as follows: under setting [9], 423.92 ± 1.1 Å²; under setting [10], 481.33 ± 2 Å².

Turning to “DLGKFQVATDALK [_DLGK(Malonyl)FQVATDALK_]”, the collision cross section under setting [8] turned out to be 406.38 ± 0.61 Å². “INNFSADIKDSK [_INNFSADIK(hydroxyisobutyryl)DSK_]” gave a collision cross section under setting [2] of 408.19 ± 0.53 Å² and a collision cross section under setting [3] of 466.44 ± 1.1 Å². Under setting [8], “ATVASSTQKFQDLGVK [_ATVASSTQK(Malonyl)FQDLGVK_]” yielded a collision cross section of 440.93 ± 1 Å².

With “TVSKVDDFLANEAK [_TVSK(Butyryl)VDDFLANEAK_]”, under setting [11], the collision cross section is given as 424.02 ± 0.86 Å². Turning to SLKLNTAEDAK [_SLK(Propionyl)LNTAEDAK_], the collision cross section under setting [6] stood at 376 ± 0.94 Å². “PASGAGAGAGAGKR [_PASGAGAGAGAGK(Succinyl)R_]”: the collision cross section was 354.83 ± 0.23 Å² under setting [9] and 462.42 ± 2 Å² under setting [10]. Consider YTAQVDAEEK [_Y(Phospho (Y))TAQVDAEEK_], for which, under setting [5], the collision cross section is 361.18 ± 0.78 Å².

VYPSSLSK [_VY(Phospho (Y))PSSLSK_]: the collision cross section under setting [5] was found to be 344.53 ± 0.066 Å². The substance RGPPGAK [_RGPP(Hydroxyproline)GAK_] came in with a collision cross section under setting [12] of 303.1 ± 0.0067 Å².

The substance ILDLKTGTVK [_ILDLK(Crotonyl)TGTVK_] yielded a collision cross section under setting [13] of 360.69 ± 0.88 Å². “ALASIDSKLNQAK [_ALASIDSK(hydroxyisobutyryl)LNQAK_]” came in with a collision cross section under setting [2] of 410.87 ± 9.2 Å². Under setting [2], “GSLEKGSPEDK [_GSLEK(hydroxyisobutyryl)GSPEDK_]” yielded a collision cross section of 376.24 ± 0.91 Å². In the case of “YADLTEDQLPSCESLK [_Y(Phospho (Y))ADLTEDQLPSCESLK_]”, the collision cross section under setting [5] was found to be 458.87 Å². As to “SPSDSGYSYETIGKTTK [_SPSDSGYSYETIGK(Butyryl)TTK_]”, the collision cross section is 455.62 ± 0.51 Å² under setting [11] and 527.5 ± 2.7 Å² under setting [14]. In the case of LGNDFHTNKR [_LGNDFHTNK(Formyl)R_], the collision cross section was 366.48 ± 1.5 Å² (charge state: 2, modification: Formyl) and 438.07 ± 2.4 Å² (charge state: 3, modification: Formyl). “GAEKTEVAEPR [_GAEK(Gluratylation)TEVAEPR_]”: for the setting “charge state: 2, modification: Glutarylation”, the collision cross section is recorded as 362.79 ± 0.71 Å².

KFGVLSDNFK [_K(Malonyl)FGVLSDNFK_] registered a collision cross section under setting [8] of 373.81 ± 0.63 Å². In the case of “VNIGQGSHPQKVK [_VNIGQGSHPQK(GlyGly (K))VK_]”, the collision cross section by setting is: under setting [15], 422.43 ± 1.1 Å²; under setting [16], 490.21 ± 0.72 Å². With “IVFSGNLFQHQEDSKK [_IVFSGNLFQHQEDSK(Butyryl)K_]”, the collision cross section is listed as 504.05 ± 1 Å² under setting [11] and 542.63 ± 1.2 Å² under setting [14]. Consider FTEYETQVK [_FTEY(Nitro (Y))ETQVK_], for which, under setting [17], the collision cross section came out at 363.94 ± 0.94 Å². Regarding “SPSDSGYSYETIGKTTK [_SPSDSGYSYETIGK(GlyGly (K))TTK_]”, the collision cross section by setting is: under setting [15], 483.23 ± 1.5 Å²; under setting [16], 532.2 ± 3.5 Å². On to “SLFFGGKGAPLQR [_SLFFGGK(Crotonyl)GAPLQR_]”, for which the collision cross section under setting [13] is listed as 404.03 ± 0.35 Å².

Under “charge state: 2, modification: HexNAc (ST)”, TQSFSLQER [_T(HexNAc (ST))QSFSLQER_] returned a collision cross section of 373.04 ± 0.83 Å².

PDTQYTGR [_PDTQY(Phospho (Y))TGR_] came in with a collision cross section under setting [5] of 335.56 ± 0.067 Å². Substance “TEVLSPNSKVESK [_TEVLSPNSK(Propionyl)VESK_]” yielded a collision cross section under setting [6] of 413.62 ± 0.97 Å² and a collision cross section under setting [7] of 453.73 Å². In turn, “VGLQVVAVKAPGFGDNR [_VGLQVVAVK(hydroxyisobutyryl)APGFGDNR_]” displayed a collision cross section under setting [2] of 453.58 ± 0.89 Å² and a collision cross section under setting [3] of 502.92 ± 2.8 Å².

With SEASSEFAKK [_SEASSEFAK(Methyl (K))K_], the collision cross section reads like this: (charge state: 2, modification: Methyl (K)) 357.88 ± 2.5 Å²; (charge state: 3, modification: Methyl (K)) 426.48 ± 2.6 Å². Consider LYAVHQEGNK [_LY(Phospho (Y))AVHQEGNK_], for which the collision cross section runs as follows: under setting [5], 367.74 ± 0.74 Å²; (charge state: 3, modification: Phospho (Y)) 466.01 ± 0.98 Å². The substance GSRGFPGEK [_GSRGFP(Hydroxyproline)GEK_] showed a collision cross section under setting [12] of 330.58 ± 0.79 Å². Consider “VFSIISSEKELK [_VFSIISSEK(Dimethyl (K))ELK_]”, for which the collision cross section (charge state: 2, modification: Dimethyl (K)) is 416.15 ± 1.1 Å² and the collision cross section under setting [1] was 490.22 ± 1.2 Å².

In turn, ITASLCDLKSR [_ITASLCDLK(Biotin)SR_] had a collision cross section under setting [18] of 401.02 Å².

In turn, “YIGTGHADTTK [_Y(Phospho (Y))IGTGHADTTK_]” displayed a collision cross section under setting [5] of 372.65 ± 0.75 Å². In turn, “ASNAAVKLAESK [_ASNAAVK(Acetyl (K))LAESK_]” came in with a collision cross section under setting [4] of 371.36 ± 0.81 Å². Substance “FNALFAQGNYSEAAK [_FNALFAQGNY(Nitro (Y))SEAAK_]” came in with a collision cross section under setting [17] of 433.45 ± 0.55 Å². As for ALASIDSKLNQAK [_ALASIDSK(Biotin)LNQAK_], the collision cross section is, setting by setting: under setting [18], 417.14 ± 2.9 Å²; (charge state: 3, modification: Biotin) 481.19 Å².

The substance “LAPEYEAAATR [_LAPEY(Phospho (Y))EAAATR_]” registered a collision cross section under setting [5] of 374.2 ± 0.063 Å². “RFGGPVHHQAQR [_R(Citrullination (R))FGGPVHHQAQR_]”: the collision cross section came to 387.08 ± 0.89 Å² (charge state: 2, modification: Citrullination (R)) and 477.19 ± 0.94 Å² under setting [19]. Consider “SNEEGSEEKGPEVR [_SNEEGSEEK(GlyGly (K))GPEVR_]”, for which the collision cross section under setting [15] is reported as 409.13 ± 2.5 Å² and the collision cross section under setting [16] stood at 474.76 ± 1.1 Å². Under setting [18], KFGVLSDNFK [_K(Biotin)FGVLSDNFK_] showed a collision cross section of 394.71 ± 3.8 Å². “IISSIEQKEENK [_IISSIEQK(Propionyl)EENK_]” showed a collision cross section under setting [6] of 403.07 ± 0.65 Å². Substance “LQLGTPPPLLAARLVPPR [_LQLGTPPPLLAAR(Citrullination (R))LVPPR_]” showed a collision cross section under setting [19] of 576.16 ± 0.34 Å².
